By Kd is commonly meant a measure of binding affinity in units of concentration.

The text below walks through data of PMC12239786, “SARS-CoV-2 RNA-binding protein suppresses extracellular miRNA release”.

In one data set the target is His-Nsp9 (SARS-CoV-2, UniProt P0DTD1 4141-4253). Put plainly: fluorescence polarization; 100 nM RNA; FP: 20 mM HEPES pH 7.0, 150 mM NaCl, 2 mM MgCl2, 10 mM DTT, 1 U/ul RiboLock, 5 min at room temperature; NMR: 20 mM HEPES pH 7.0, 15 mM NaCl, 0.5 mM TCEP, 0.02%. Conditions: protein: recombinant; tags: His; chain copies: 2; label: 3' Cy3.
Data set [1] concerns the target AUF1 (RNA-binding domain on protein array) (human, UniProt Q14103 97-261). Put plainly: protein microarray; FP: 20 mM HEPES pH 7.0, 150 mM NaCl, 2 mM MgCl2, 10 mM DTT, 1 U/ul RiboLock, 5 min at room temperature; NMR: 20 mM HEPES pH 7.0, 15 mM NaCl, 0.5 mM TCEP, 0.02%. Particulars: protein: recombinant; label: 5' biotin.
Data set [2] concerns the target NCL (RNA-binding domain on protein array) (human, UniProt P19338 307-647). The description is as above. Conditions: protein: recombinant; label: 5' biotin.

Chain of NCL (RNA-binding domain on protein array) (P19338 307-647): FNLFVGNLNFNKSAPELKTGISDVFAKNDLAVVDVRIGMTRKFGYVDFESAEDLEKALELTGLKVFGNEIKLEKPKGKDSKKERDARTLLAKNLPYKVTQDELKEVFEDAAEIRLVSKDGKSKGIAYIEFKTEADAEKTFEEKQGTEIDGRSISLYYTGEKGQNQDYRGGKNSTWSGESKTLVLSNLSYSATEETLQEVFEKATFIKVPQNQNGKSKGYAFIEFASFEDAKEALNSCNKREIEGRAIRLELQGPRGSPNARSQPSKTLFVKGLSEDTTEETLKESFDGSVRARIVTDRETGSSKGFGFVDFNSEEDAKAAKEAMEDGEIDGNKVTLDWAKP
Chain of AUF1 (RNA-binding domain on protein array) (Q14103 97-261): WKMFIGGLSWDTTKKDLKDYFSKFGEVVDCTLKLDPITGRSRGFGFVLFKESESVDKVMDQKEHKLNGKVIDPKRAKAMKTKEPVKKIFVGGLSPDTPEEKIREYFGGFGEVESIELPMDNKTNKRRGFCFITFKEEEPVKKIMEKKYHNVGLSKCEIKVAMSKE

B1: miR-130b-Cy3 (ssRNA)
RNA: CAGUGCAAUGAUGAAAGGGCAU
modifications: 5' phosphate
As for B1, in the data set with His-Nsp9, the dissociation constant Kd is approximately 63 nM.

B2: mutant let-7b-Cy3 (ssRNA)
RNA: UGAGGUAGUAGGUUGCCAUUAU
modifications: 5' phosphate
For the molecule B2, the binding result with His-Nsp9 is recorded as “no binding”.

B3: let-7b-biotin (ssRNA)
RNA: UGAGGUAGUAGGUUGUGUGGUU
For B3, the binding result in data set [1] and in data set [2] was “binds” in each case.

B4: miR-21-Cy3 (ssRNA)
RNA: UAGCUUAUCAGACUGAUGUUGA
modifications: 5' phosphate
For B4, the binding result in the data set with His-Nsp9 is on record as “no binding”.

B5: let-7b-Cy3 (ssRNA)
RNA: UGAGGUAGUAGGUUGUGUGGUU
modifications: 5' phosphate
For B5, the Kd with His-Nsp9 is approximately 15 nM.
